The source of these data is article PMC12041258.

The target of assay [1] is C. crescentus DriD(78-327) (C. crescentus). Description: SEC. A general note: In gel filtration, larger molecules generally elute earlier.
Assay [2] has the same target. Nature of the assay: SEC. This is another data set of the same source.
Assay [3] addresses C. crescentus DriD DNABD, DriD(1-70) (C. crescentus). Description: MST.

Like-named read-outs stand apart in the source and are kept apart here.

As usually defined, the stoichiometry N is the number of molecules, sites or subunits per partner or assembly. Turning to “C. crescentus DriD(78-327) (domain or fragment)”, the stoichiometry N in assay [1] and in assay [2] was 2 in each case. In general, Kd refers to the free concentration of one partner at which half of the binding sites on the other are occupied at equilibrium, for simple one-to-one binding. A high value points to a looser complex. Regarding “His-tag free C. crescentus DriD(78-327) (domain or fragment)”, the Kd in assay [3] turned out to be 15 µM.
